Experiments:
[1] = molecular target: L19 IgG-DnaEN after PTS (trans-spliced with DnaEC peptide without a probe) (human); experiment: SPR; Biacore T100; L19 IgG or modified versions immobilised on a CM5 chip treated with antibody capture kit; soluble Fc receptor fragments as analytes at 1.56 - 50 nM; association and dissociation kinetics used to calculate the dissociation constant
[2] = molecular target: L19 IgG control antibody (unmodified, without linker) (human); experiment: as above
[3] = molecular target: L19 IgG-GyrA after EPL (cleaved with Mesna, cysteine as probe) (human); experiment: as above
Sequence of L19 IgG-GyrA after EPL (cleaved with Mesna, cysteine as probe) (human) (heavy, as listed by the source, chain 1 of 2): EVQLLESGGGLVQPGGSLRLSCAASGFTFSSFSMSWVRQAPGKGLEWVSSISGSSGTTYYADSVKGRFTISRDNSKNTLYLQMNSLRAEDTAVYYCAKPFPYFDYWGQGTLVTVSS
Sequence of L19 IgG-GyrA after EPL (cleaved with Mesna, cysteine as probe) (human) (light, as listed by the source, chain 2 of 2): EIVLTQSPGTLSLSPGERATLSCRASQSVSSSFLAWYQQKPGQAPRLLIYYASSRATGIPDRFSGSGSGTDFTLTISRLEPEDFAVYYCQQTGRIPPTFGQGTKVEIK

[4] = molecular target: L19 IgG after PTS (L19 IgG-DnaEN trans-spliced with DnaEC peptide without a probe) (human); experiment: SPR; Biacore T100; L19 IgG or modified versions immobilized on a CM5 chip treated with antibody capture kit; soluble Fc receptor fragments 1.56 - 50 nM as analytes; KD calculated from association and dissociation kinetics
Sequence of L19 IgG after PTS (L19 IgG-DnaEN trans-spliced with DnaEC peptide without a probe) (human) (heavy, as listed by the source, chain 1 of 2): as the sequence (heavy, as listed by the source, chain 1 of 2) above
Sequence of L19 IgG after PTS (L19 IgG-DnaEN trans-spliced with DnaEC peptide without a probe) (human) (light, as listed by the source, chain 2 of 2): as the sequence (light, as listed by the source, chain 2 of 2) above

[5] = molecular target: L19 IgG after EPL (L19 IgG-GyrA cleaved with Mesna and derivatized with cysteine) (human); experiment: as above
Sequence of L19 IgG after EPL (L19 IgG-GyrA cleaved with Mesna and derivatized with cysteine) (human) (heavy, as listed by the source, chain 1 of 2): as the sequence (heavy, as listed by the source, chain 1 of 2) above
Sequence of L19 IgG after EPL (L19 IgG-GyrA cleaved with Mesna and derivatized with cysteine) (human) (light, as listed by the source, chain 2 of 2): as the sequence (light, as listed by the source, chain 2 of 2) above

Sequence of L19 IgG control antibody (unmodified, without linker) (human) (heavy, as listed by the source, chain 1 of 2): as the sequence (heavy, as listed by the source, chain 1 of 2) above
Sequence of L19 IgG control antibody (unmodified, without linker) (human) (light, as listed by the source, chain 2 of 2): as the sequence (light, as listed by the source, chain 2 of 2) above
Sequence of L19 IgG-DnaEN after PTS (trans-spliced with DnaEC peptide without a probe) (human) (heavy, as listed by the source, chain 1 of 2): as the sequence (heavy, as listed by the source, chain 1 of 2) above
Sequence of L19 IgG-DnaEN after PTS (trans-spliced with DnaEC peptide without a probe) (human) (light, as listed by the source, chain 2 of 2): as the sequence (light, as listed by the source, chain 2 of 2) above

Fcγ RI/CD64, soluble Fc receptor fragment (from UniProt P12314 16-292)
Kd [1]: 0.21 nM
koff [1]: 0.000201 s⁻¹
kon [1]: 960000 M⁻¹ s⁻¹
Kd [2]: 0.17 nM
koff [2]: 0.000168 s⁻¹
kon [2]: 1.02e+06 M⁻¹ s⁻¹
Kd [3]: 0.13 nM
koff [3]: 0.000145 s⁻¹
kon [3]: 1.11e+06 M⁻¹ s⁻¹

soluble Fc receptor fragment Fcγ RIIIA/CD16a (from UniProt P08637 17-208)
Kd [4]: 60 nM
Kd [5]: 60 nM

From article PMC3154154
